Ends that are not written are not given here. * marks the point of attachment. Biotin = O=C1N[C@H]2[C@H](CS[C@H]2CCCCC(=O)*)N1
Columns and labels:
[1] = target: T1, Bak loop peptide 46EQEAEGVAAPADPEMVTLPLQPSS69 (human); experiment: ITC at 25° C., Ab at 5 µM and peptide at 100 µM
T1 construct: also called Bak peptide (residues E46 to S69 of human Bak)
T1 peptide: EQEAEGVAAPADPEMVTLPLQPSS
Description: (§1) FIG. 19: Isothermal Titration Microcalorimetry binding profile of 26/05-7D10-17-13 with loop peptide (⁴⁶[…]⁶⁹; SEQ ID NO: 21) at 25° C. A) Titration with Ab at 5 μM and peptide at 100 μM.
(§2) ITC experiments were performed using a MicroCal iTC 200 instrument from GE. Injections of 2.43 μl of peptide solution were added from a computer-controlled microsyringe at an interval of 3 min into the sample solution of antibody (cell volume=300 μl) with stirring at 1000 rpm. Titrations were done at pH 7.2 using […] phosphate-buffered saline. The experimental data were fitted to a theoretical titration curve using software supplied by Microcal.

[2] = target: T2, human BakΔC25 protein (residues 1-186 of SwissProt Accession No. Q16611.1) (human, UniProt Q16611 1-186); experiment: SPR, BIAcore 3000
T2 construct: also called humanAC25 Bak protein; hBakAC
T2 sequence: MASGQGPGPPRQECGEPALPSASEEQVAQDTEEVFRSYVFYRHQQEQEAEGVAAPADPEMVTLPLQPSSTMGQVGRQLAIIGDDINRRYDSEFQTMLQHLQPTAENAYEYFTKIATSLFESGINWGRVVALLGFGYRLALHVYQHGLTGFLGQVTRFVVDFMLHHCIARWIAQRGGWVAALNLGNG

[3] = target: T1, Bak loop peptide …; experiment: SPR, BIAcore 3000
[4] = target: T1, Bak loop peptide …; experiment: ITC at 25 °C, Ab 2.5 µM, peptide 50 µM, OneSites model
Description: as §1, §2

[5] = target: T3, human Bak 15-mer peptide 1-15; experiment: peptide ELISA, A405
T3 construct: member of m17
T3 peptide: Biotin-SGSGMASGQGPGPPRQECG
Description: (§3) Since most epitopes were linear, further mapping was performed using peptide arrays. Two arrays of overlapping 15-mer peptides (each offset by 10 residues) that collectively spanned the entire sequences of human and mouse Bak were designed. Biotinylated peptides were immobilized on streptavidin-coated plates and each antibody tested by ELISA.

[6] = target: T4, mouse Bak 15-mer peptide 81-95; experiment: peptide ELISA, A405
T4 construct: member of m18
T4 peptide: Biotin-SGSGDDINRRYDTEFQNLL
Description: as §3

[7] = target: T5, mouse Bak 15-mer peptide 71-85; experiment: peptide ELISA, A405
T5 construct: member of m18
T5 peptide: Biotin-SGSGQVGRQLALIGDDINR
Description: as §3

[8] = target: T6, mouse Bak 15-mer peptide 31-45; experiment: peptide ELISA, A405
T6 construct: member of m18
T6 peptide: Biotin-SGSGEVFRSYVFYLHQQEQ
Description: as §3

[9] = target: T7, human Bak 15-mer peptide 21-35; experiment: peptide ELISA, A405
T7 construct: member of m17
T7 peptide: Biotin-SGSGSASEEQVAQDTEEVF
Description: as §3

[10] = target: T8, human Bak 15-mer peptide 31-45; experiment: peptide ELISA, A405
T8 construct: member of m17
T8 peptide: Biotin-SGSGTEEVFRSYVFYRHQQ
Description: as §3

[11] = target: T9, human Bak 15-mer peptide for residues 11-25 (human, UniProt Q16611 11-25); experiment: peptide ELISA, A405
T9 construct: range 11-25
T9 peptide: Biotin-SGSGRQECGEPALPSASEE
Description: as §3

[12] = target: T10, mouse Bak 15-mer peptide 41-55; experiment: peptide ELISA, A405
T10 construct: member of m18
T10 peptide: Biotin-SGSGHQQEQETQGAAAPAN
Description: as §3

[13] = target: T11, human Bak 15-mer peptide 81-95; experiment: peptide ELISA, A405
T11 construct: member of m17
T11 peptide: Biotin-SGSGIGDDINRRYDSEFQT
Description: as §3

[14] = target: T12, human Bak 15-mer peptide 51-65; experiment: peptide ELISA, A405
T12 construct: member of m17
T12 peptide: Biotin-SGSGGVAAPADPEMVTLPL
Description: as §3

[15] = target: T13, mouse Bak 15-mer peptide 21-35; experiment: peptide ELISA, A405
T13 construct: member of m18
T13 peptide: Biotin-SGSGSEQQVAQDTEEVFRS
Description: as §3

[16] = target: T14, human Bak 15-mer peptide 41-55; experiment: peptide ELISA, A405
T14 construct: member of m17
T14 peptide: Biotin-SGSGYRHQQEQEAEGVAAP
Description: as §3

[17] = target: T1, Bak loop peptide …; experiment: ITC at 25° C., Ab at 2.5 µM and peptide at 50 µM
Description: as §1, §2

[18] = target: T1, Bak loop peptide …; experiment: ITC at 25 °C, Ab 5 µM, peptide 100 µM, OneSites model
Description: as §1, §2

human Bak G51C = target: T15, human Bak G51C (human, UniProt Q16611 2-211); experiment: immunoprecipitation from membranes incubated with or without tBid, western blot
T15 construct: whole, on cells; In membrane fractions
T15 sequence (looked up): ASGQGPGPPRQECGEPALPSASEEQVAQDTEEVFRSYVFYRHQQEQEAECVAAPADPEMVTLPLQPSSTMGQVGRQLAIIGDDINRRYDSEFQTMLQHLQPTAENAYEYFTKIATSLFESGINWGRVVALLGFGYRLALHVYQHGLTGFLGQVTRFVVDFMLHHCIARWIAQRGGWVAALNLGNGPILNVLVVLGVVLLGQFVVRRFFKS
Description: FIG. 4: Ability of antibodies to recognize Bak in different conformations. Membrane fractions from cells expressing Bak (as indicated) were incubated (30 min, 30° C.) with (+) or without (−) Bid, solubilized with digitonin, and incubated with the Bak antibodies shown. Bak in immunoprecipitates and whole cell lysate controls was detected by western blot using the 4B5 antibody. Data are representative of at least two independent experiments ND, not done.
Following activation of Bak in membrane fractions, samples were solubilized by incubation with 1% digitonin on ice for at least 30 min. […] After removing beads by repeated washes in Onyx buffer, lysates were incubated with constant agitation for 2 h at 4° C. with 4 ug/ml anti-Bak antibody, followed by incubation for 1 h at 4° C. with additional pre-washed Sepharose G beads. Immune complexes were isolated by centrifugation (13000 rpm, 2 min, 4° C.), washed 4 times with Onyx buffer, resuspended in sample buffer containing 2-mercaptoethanol and analyzed by western blotting.

QDTEEVFR = target: T16, QDTEEVFR; experiment: peptide ELISA, A405
T16 construct: member of m19; also called hBak 8-mer 29-36
T16 peptide: Biotin-SGSGQDTEEVFR

EQVAQDTE = target: T17, EQVAQDTE; experiment: peptide ELISA, A405
T17 construct: member of m19; also called hBak 8-mer 25-32
T17 peptide: Biotin-SGSGEQVAQDTE

RSYVFYRH = target: T18, RSYVFYRH; experiment: peptide ELISA, A405
T18 construct: member of m19; also called hBak 8-mer 36-43
T18 peptide: Biotin-SGSGRSYVFYRH

VFRSYVFY = target: T19, VFRSYVFY; experiment: peptide ELISA, A405
T19 construct: member of m19; also called hBak 8-mer 34-41
T19 peptide: Biotin-SGSGVFRSYVFY

[19] = target: T20, human Bak 8-mer peptide YVFYRHQQ (residues 38-45) (human); experiment: peptide ELISA, A405
T20 peptide: Biotin-SGSGYVFYRHQQ

VAAPADPE = target: T21, VAAPADPE; experiment: peptide ELISA, A405
T21 construct: member of m19; also called hBak 8-mer 52-59
T21 peptide: Biotin-SGSGVAAPADPE

EVFRSYVF = target: T22, EVFRSYVF; experiment: peptide ELISA, A405
T22 construct: member of m19; also called hBak 8-mer 33-40
T22 peptide: Biotin-SGSGEVFRSYVF

SEEQVAQD = target: T23, SEEQVAQD; experiment: peptide ELISA, A405
T23 construct: member of m19; also called hBak 8-mer 23-30
T23 peptide: Biotin-SGSGSEEQVAQD

AQDTEEVF = target: T24, AQDTEEVF; experiment: peptide ELISA, A405
T24 construct: member of m19; also called hBak 8-mer 28-35
T24 peptide: Biotin-SGSGAQDTEEVF

EEQVAQDT = target: T25, EEQVAQDT; experiment: peptide ELISA, A405
T25 construct: member of m19; also called hBak 8-mer 24-31
T25 peptide: Biotin-SGSGEEQVAQDT

GVAAPADP = target: T26, GVAAPADP; experiment: peptide ELISA, A405
T26 construct: member of m19; also called hBak 8-mer 51-58
T26 peptide: Biotin-SGSGGVAAPADP

FRSYVFYR = target: T27, FRSYVFYR; experiment: peptide ELISA, A405
T27 construct: member of m19; also called hBak 8-mer 35-42
T27 peptide: Biotin-SGSGFRSYVFYR

EEVFRSYV = target: T28, EEVFRSYV; experiment: peptide ELISA, A405
T28 construct: member of m19; also called hBak 8-mer 32-39
T28 peptide: Biotin-SGSGEEVFRSYV

QVAQDTEE = target: T29, QVAQDTEE; experiment: peptide ELISA, A405
T29 construct: member of m19; also called hBak 8-mer 26-33
T29 peptide: Biotin-SGSGQVAQDTEE

EAEGVAAP = target: T30, EAEGVAAP; experiment: peptide ELISA, A405
T30 construct: member of m19; also called hBak 8-mer 48-55
T30 peptide: Biotin-SGSGEAEGVAAP

AEGVAAPA = target: T31, AEGVAAPA; experiment: peptide ELISA, A405
T31 construct: member of m19; also called hBak 8-mer 49-56
T31 peptide: Biotin-SGSGAEGVAAPA

TEEVFRSY = target: T32, TEEVFRSY; experiment: peptide ELISA, A405
T32 construct: member of m19; also called hBak 8-mer 31-38
T32 peptide: Biotin-SGSGTEEVFRSY

EGVAAPAD = target: T33, EGVAAPAD; experiment: peptide ELISA, A405
T33 construct: member of m19; also called hBak 8-mer 50-57
T33 peptide: Biotin-SGSGEGVAAPAD

SYVFYRHQ = target: T34, SYVFYRHQ; experiment: peptide ELISA, A405
T34 construct: member of m19; also called hBak 8-mer 37-44
T34 peptide: Biotin-SGSGSYVFYRHQ

VAQDTEEV = target: T35, VAQDTEEV; experiment: peptide ELISA, A405
T35 construct: member of m19; also called hBak 8-mer 27-34
T35 peptide: Biotin-SGSGVAQDTEEV

DTEEVFRS = target: T36, DTEEVFRS; experiment: peptide ELISA, A405
T36 construct: member of m19; also called hBak 8-mer 30-37
T36 peptide: Biotin-SGSGDTEEVFRS

B1: 26/05-7D10-17-13 antibody (antibody, V domains shown)
VH: EVELVESGGDLVQPGRSLKLSCAASGFTFSNLAMAWVRQTPTKGLEWVASISPAGITTYYRDSVKGRFTISRDNARNTQYLQMDSLRSEDTATYYCARHTGKSSFFDYWGQGVMVTVSS
VL: DVQMTQSPSYLAASPGESVSISCKATENINTYLAWYQAKPGKTTKLLLYSGSTLQSGTPSRFSGSGSGTDFTLTISSLEPEDFAVYYCQQHNEYPLTFGSGTKLEIK
notes: Rat IgG monoclonal antibody from hybridoma SW1 (ECACC 15041601), WEHI monoclonal antibody facility; also called 26/05-7D10-17-13 MAb; 26/05-7D 10-17-13 anti-Bak antibody
Kd [1]: < 4.3 nM | Kd [2]: 0.466 nM | Kd [3]: 2.9 nM | Ka [4]: 2.26e+08 M⁻¹ | ΔH [4]: -29.3 kcal/mol | ΔS [4]: -60 cal/mol/deg | binding result [5]: no binding | binding result [6]: no binding | binding result [7]: no binding | binding result [8]: no binding | binding result [9]: no binding | binding result [10]: no binding | binding result [11]: no binding | binding result [12]: binds | binding result [13]: no binding | binding result [14]: binds | binding result [15]: no binding | binding result [16]: binds | Kd [17]: < 4 nM | Ka [18]: 2.34e+08 M⁻¹ | ΔH [18]: -23.1 kcal/mol | ΔS [18]: -39.2 cal/mol/deg | binding result (human Bak G51C): no binding | binding result (QDTEEVFR): no binding | binding result (EQVAQDTE): no binding | binding result (RSYVFYRH): no binding | binding result (VFRSYVFY): no binding | binding result [19]: no binding | binding result (VAAPADPE): binds | binding result (EVFRSYVF): no binding | binding result (SEEQVAQD): no binding | binding result (AQDTEEVF): no binding | binding result (EEQVAQDT): no binding | binding result (GVAAPADP): binds | binding result (FRSYVFYR): no binding | binding result (EEVFRSYV): no binding | binding result (QVAQDTEE): no binding | binding result (EAEGVAAP): binds | binding result (AEGVAAPA): binds | binding result (TEEVFRSY): no binding | binding result (EGVAAPAD): binds | binding result (SYVFYRHQ): no binding | binding result (VAQDTEEV): no binding | binding result (DTEEVFRS): no binding
